IntAct's records for PubMed 16946707

B1: Dynamin-1 (Homo sapiens), Q05193 (parent)
chain: MGNRGMEDLIPLVNRLQDAFSAIGQNADLDLPQIAVVGGQSAGKSSVLENFVGRDFLPRGSGIVTRRPLVLQLVNATTEYAEFLHCKGKKFTDFEEVRLEIEAETDRVTGTNKGISPVPINLRVYSPHVLNLTLVDLPGMTKVPVGDQPPDIEFQIRDMLMQFVTKENCLILAVSPANSDLANSDALKVAKEVDPQGQRTIGVITKLDLMDEGTDARDVLENKLLPLRRGYIGVVNRSQKDIDGKKDITAALAAERKFFLSHPSYRHLADRMGTPYLQKVLNQQLTNHIRDTLPGLRNKLQSQLLSIEKEVEEYKNFRPDDPARKTKALLQMVQQFAVDFEKRIEGSGDQIDTYELSGGARINRIFHERFPFELVKMEFDEKELRREISYAIKNIHGIRTGLFTPDMAFETIVKKQVKKIREPCLKCVDMVISELISTVRQCTKKLQQYPRLREEMERIVTTHIREREGRTKEQVMLLIDIELAYMNTNHEDFIGFANAQQRSNQMNKKKTSGNQDEILVIRKGWLTINNIGIMKGGSKEYWFVLTAENLSWYKDDEEKEKKYMLSVDNLKLRDVEKGFMSSKHIFALFNTEQRNVYKDYRQLELACETQEEVDSWKASFLRAGVYPERVGDKEKASETEENGSDSFMHSMDPQLERQVETIRNLVDSYMAIVNKTVRDLMPKTIMHLMINNTKEFIFSELLANLYSCGDQNTLMEESAEQAQRRDEMLRMYHALKEALSIIGDINTTTVSTPMPPPVDDSWLQVQSVPAGRRSPTSSPTPQRRAPAVPPARPGSRGPAPGPPPAGSALGGAPPVPSRPGASPDPFGPPPQVPSRPNRAPPGVPSRSGQASPSRPESPRPPFDL
partner: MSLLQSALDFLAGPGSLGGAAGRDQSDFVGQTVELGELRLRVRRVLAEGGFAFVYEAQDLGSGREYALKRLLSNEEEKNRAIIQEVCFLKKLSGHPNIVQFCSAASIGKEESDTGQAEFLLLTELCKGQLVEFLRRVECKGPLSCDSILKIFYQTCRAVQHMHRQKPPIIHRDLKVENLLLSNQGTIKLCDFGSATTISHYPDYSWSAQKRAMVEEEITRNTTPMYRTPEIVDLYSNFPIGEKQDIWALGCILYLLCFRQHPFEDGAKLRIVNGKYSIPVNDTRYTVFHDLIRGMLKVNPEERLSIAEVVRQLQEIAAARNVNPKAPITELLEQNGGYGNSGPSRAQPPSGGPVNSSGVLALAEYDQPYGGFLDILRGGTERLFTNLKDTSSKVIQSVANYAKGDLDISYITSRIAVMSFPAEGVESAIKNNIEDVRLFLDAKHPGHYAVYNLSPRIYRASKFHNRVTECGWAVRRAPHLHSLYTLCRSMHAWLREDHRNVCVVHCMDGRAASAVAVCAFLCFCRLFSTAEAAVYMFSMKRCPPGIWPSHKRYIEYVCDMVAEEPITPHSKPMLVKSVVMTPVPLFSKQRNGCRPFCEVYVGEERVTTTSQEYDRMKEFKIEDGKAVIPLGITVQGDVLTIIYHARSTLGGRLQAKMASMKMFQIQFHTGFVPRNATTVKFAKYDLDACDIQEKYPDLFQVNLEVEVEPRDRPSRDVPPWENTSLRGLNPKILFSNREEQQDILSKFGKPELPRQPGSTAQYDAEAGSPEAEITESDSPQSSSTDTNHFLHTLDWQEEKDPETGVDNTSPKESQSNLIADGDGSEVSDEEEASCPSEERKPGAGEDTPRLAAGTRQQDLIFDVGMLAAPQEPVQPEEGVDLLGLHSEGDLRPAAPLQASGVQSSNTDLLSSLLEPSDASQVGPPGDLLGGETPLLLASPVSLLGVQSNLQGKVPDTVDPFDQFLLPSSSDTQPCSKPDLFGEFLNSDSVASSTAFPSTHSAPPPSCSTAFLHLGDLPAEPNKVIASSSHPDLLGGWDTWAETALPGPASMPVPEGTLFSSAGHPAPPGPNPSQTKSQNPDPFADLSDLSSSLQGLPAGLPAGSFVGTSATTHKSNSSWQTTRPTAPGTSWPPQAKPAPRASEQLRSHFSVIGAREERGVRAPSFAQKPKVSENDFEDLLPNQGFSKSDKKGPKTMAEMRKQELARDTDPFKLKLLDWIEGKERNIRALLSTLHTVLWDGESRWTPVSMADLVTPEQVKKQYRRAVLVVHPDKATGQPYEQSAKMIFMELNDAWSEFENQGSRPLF

Variants of: B1
Conditions: with gak_rat Gak

Row | effect of a mutation on the interaction | Variant
1 | increasing interaction | K694A
2 | disrupting interaction | I690K
